The data set deals with the molecule itself. The experiment in a line: crystal structure; MvfR LBD with the inhibitor M64 bound; space group C 2 2 2_(1), 2.65 Å, two monomers in the asymmetric unit; tetrameric arrangement in the crystal.

B1: MvfR ligand binding domain (LBD), residues 94 to 295 (domain or fragment)
chain: TNLRVLLDTAIPPSFCDTVSSVLLDDFNMVSLIRTSPADSLATIKQDNAEIDIAITIDEELKISRFNQCVLGYTKAFVVAHPQHPLCNASLHSIASLANYRQISLGSRSGQHSNLLRPVSDKVLFVENFDDMLRLVEAGVGWGIAPHYFVEERLRNGTLAVLSELYEPGGIDTKVYCYYNTALESERSFLRFLESARQRLREL
notes: Thr that precedes residue 94 in the construct (His-THB-SUMO-ULP-Thr) and is left after cleavage with SEN protease; the model numbers it Thr93; Q9I4X0 is the entry of strain PAO1; Cloned into pET28a; the model comprises Thr93 to Leu295; also called MvfR LBD; PqsR LBD; source: E. coli BL21(DE3), purified (Ni-NTA, negative Ni-NTA after cleavage of the tag with SEN protease, gel filtration); not …
In the case of B1, the stoichiometry N (in general, the number of molecules, sites or subunits per partner or assembly) was 4.

These data come from article PMC5770554, “Molecular Insights into Function and Competitive Inhibition of Pseudomonas aeruginosa Multiple Virulence Factor Regulator” (mBio, 2018).
